Measurements published in patent publication US20240376207A1 (JIANGSU HENGRUI PHARMACEUTICALS, published 2024).

Legend:
[1] = biological target: T1, his-tagged cynomolgus monkey PVRIG (cyno-PVRIG-his) recombinant protein (cynomolgus monkey); assay: ELISA, coated antigen
T1 construct: expressed in HEK293, purified by Ni-NTA; also called Monkey PVRIG-his; cynomolgus monkey PVRIG recombinant protein
T1 chain: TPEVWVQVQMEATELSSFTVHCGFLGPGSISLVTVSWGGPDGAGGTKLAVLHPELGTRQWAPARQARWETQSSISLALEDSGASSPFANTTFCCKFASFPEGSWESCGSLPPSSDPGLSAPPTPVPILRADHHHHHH
Experimental: (§1) A human, cynomolgus monkey, or mouse PVRIG protein (at a concentration of 1 μg/mL) was coated on a 96-well microplate at 100 μL per well, and incubated overnight at 4° C. The plate was washed three times with wash buffer at 250 μL per well. For each wash, the plate was shaken for 10 s to ensure adequate cleaning. A blocking solution (PBS+0.05% Tween20+1% BSA) was added at 300 μL/well, and the plate was incubated at room temperature for 1 h. The plate was washed three times with wash buffer at 250 μL per well. For each wash, the plate was shaken for 10 s to ensure adequate cleaning. Dilutions of the test anti-PVRIG antibodies were added at 100 μL/well. The plate was incubated at 37° C. for 1 h. The plate was washed three times with wash buffer at 250 μL per well. The […] anti-human IgG secondary antibody (Sigma, A8667) was added at 100 μL per well. The plate was incubated at 37° C. for 1 h. The plate was washed three times with wash buffer at 250 μL per well. TMB was added at 100 μL/well, and the plate was incubated in the dark for 15 min. 0.16 M sulfuric acid was added at 50 μL/well. The OD values at 450 nm were read by using a Thermo MultiSkanFc microplate reader, and the EC₅₀ values of the binding of the anti-PVRIG antibodies to PVRIG were calculated.
(§2) Binding of the humanized anti-PVRIG/TIGIT bispecific antibodies to human and cynomolgus monkey PVRIG and their blocking of the ligand of human PVRIG were detected according to the methods of Examples 4, 5 and 6.

[2] = biological target: T2, his-tagged human PVRIG (h-PVRIG-his) recombinant protein (human, UniProt Q6DKI7 41-171, limits assumed); assay: ELISA, coated antigen
T2 construct: bought from Acrobiosystems; also called Human PVRIG-his; human PVRIG recombinant protein; not shown: his tag
T2 sequence (looked up): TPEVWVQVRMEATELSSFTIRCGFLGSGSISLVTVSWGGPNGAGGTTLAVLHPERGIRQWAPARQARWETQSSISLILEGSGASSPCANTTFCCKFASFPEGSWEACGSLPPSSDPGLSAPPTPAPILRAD
Experimental: as §1, §2

[3] = biological target: T3, mouse IgG2a Fc-tagged human PVRIG (h-PVRIG-mIgG2a Fc) recombinant protein (human, UniProt Q6DKI7 41-171, limits assumed); assay: competition ELISA; human PVRIG coated, competitor human PVRL2
T3 construct: bought from Acrobiosystems; not shown: mouse IgG2a Fc tag
T3 sequence (looked up): T2 sequence (looked up)
Experimental: The h-PVRIG-mIgG2a Fc protein (at a concentration of 1 μg/mL) was coated on the 96-well microplate at 100 μL per well, and incubated overnight at 4° C. The plate was washed three times with wash buffer at 250 μL per well. For each wash, the plate was shaken for 10 s to ensure adequate cleaning. A blocking solution was added at 300 μL/well, and the plate was incubated at room temperature for 1 h. The plate was washed three times with wash buffer at 250 μL per well. For each wash, the plate was shaken for 10 s to ensure adequate cleaning. 50 μL of diluted test anti-PVRIG antibody and 50 μL of his-tagged ligand PVRL2 were added to each well, and the plate was incubated at 37° C. for 1 h. The plate was washed three times with wash buffer at 250 μL per well. The HRP-labeled anti-his-tagged secondary antibody (Genscrpit) diluted at 1:2000 was added at 100 μL per well. The plate was incubated at 37° C. for 1 h. The plate was washed three times with wash buffer at 250 μL per well. TMB was added at 100 μL/well, and the plate was incubated in the dark for 15 min. 0.16 M sulfuric acid was added at 50 μL/well. OD values at 450 nm were measured using a Thermo MμtLtiSkanFc microplate reader, and the IC₅₀ values of the anti-PVRIG antibodies blocking the binding of PVRIG to PVRL2 were calculated.
as §2

[4] = biological target: T4, human PVRIG expressed on cells (human, UniProt Q6DKI7 41-326); assay: FACS, cells overexpressing target
T4 construct: whole, on cells; also called Human PVRIG FACS; cells overexpressing human PVRIG
T4 sequence (looked up): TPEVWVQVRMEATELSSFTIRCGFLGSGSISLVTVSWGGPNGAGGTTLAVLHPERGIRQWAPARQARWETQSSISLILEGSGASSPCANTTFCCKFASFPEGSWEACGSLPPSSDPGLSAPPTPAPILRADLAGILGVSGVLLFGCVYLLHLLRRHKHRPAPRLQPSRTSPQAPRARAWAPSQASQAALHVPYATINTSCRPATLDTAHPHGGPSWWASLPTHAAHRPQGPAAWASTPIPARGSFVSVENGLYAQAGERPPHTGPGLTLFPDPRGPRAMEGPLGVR
Experimental: (§3) The expression plasmid carrying human or cynomolgus monkey PVRIG gene sequence was transfected into HEK293 cells, and the over-expressing stable transfection monoclonal cell strain was obtained by antibiotic screening and infinite dilution. Overexpressing cells were seeded into a 96-well plate at 2×10⁵ cells/per well. The cells were centrifuged at 300 g for 5 min, the supernatant was then removed, 100 μL of the test antibody was added, and the mixture was incubated at 4° C. for 1 h. The mixture was centrifuged, the supernatant was removed, the plate was washed 3 times with 200 μL of wash buffer (PBS+2% FBS), and then 100 μL of an anti-human IgG secondary antibody (Invitrogen, A-11013) labeled with Alexa Fluor 488 diluted at 1:500 was added. The mixture was incubated at 4° C. for 1 h. The plate was centrifuged, and the supernatant was removed. The plate was washed 3 times with 200 μL of wash buffer (PBS+2% FBS). The cells were resuspended in 100 μL of PBS and tested on a flow cytometer (BD FACS Calibur or BD FACS Canto_II).
as §2

[5] = biological target: T5, cynomolgus monkey PVRIG expressed on cells (cynomolgus monkey, UniProt A0A2K5WVV8 1-322); assay: FACS, cells overexpressing target
T5 construct: whole, on cells; also called Monkey PVRIG FACS; cells overexpressing cynomolgus monkey PVRIG
T5 sequence: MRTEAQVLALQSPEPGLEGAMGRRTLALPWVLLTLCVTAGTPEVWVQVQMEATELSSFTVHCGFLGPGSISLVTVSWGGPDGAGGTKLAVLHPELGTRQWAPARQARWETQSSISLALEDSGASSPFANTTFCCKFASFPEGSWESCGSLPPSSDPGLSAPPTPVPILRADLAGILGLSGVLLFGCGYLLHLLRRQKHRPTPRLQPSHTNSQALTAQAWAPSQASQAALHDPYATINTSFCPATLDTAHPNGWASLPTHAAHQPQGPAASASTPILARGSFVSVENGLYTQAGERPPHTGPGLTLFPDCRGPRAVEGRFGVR
Experimental: as §3, §2

[6] = biological target: T6, human PVRIG antigen (AcroBiosystem, PVG-H52H4) (human, UniProt Q6DKI7 41-171, limits assumed); assay: SPR (Biacore X100), antibody captured on Protein A chip, 1:1 fit
T6 sequence (looked up): T2 sequence (looked up)
Text: The affinity of the humanized bispecific antibodies for human PVRIG, cynomolgus monkey PVRIG and human TIGIT was detected using Biacore. Humanized bispecific antibodies were each captured on a Protein A biosensor chip (GE lifesciences, 29127557) of a Biacore instrument (Biacore X100, GE), and then human PVRIG antigen (AcroBiosystem, PVG-H52H4), cynomolgus monkey PVRIG antigen (SEQ ID NO: 1), or human TIGIT antigen (AcroBiosystem, TIT-H52H3) at a series of concentration gradients each flowed over the chip surface. The reaction signals were detected in real time using a Biacore instrument (Biacore X100, GE) to obtain association and dissociation curves. The data obtained from the experiment were fitted using the (1:1) Binding model with the BiacoreX100 evaluation software 2.0 GE to obtain affinity values (see Table 31).

[7] = biological target: T7, cynomolgus monkey TIGIT expressed on cells (cynomolgus monkey, UniProt A0A7N9I9V4 89-312); assay: FACS, cells overexpressing target
T7 construct: whole, on cells; also called cells overexpressing cynomolgus monkey TIGIT
Experimental: as §3
(§4) Similarly to Examples 4, 5 and 6, the binding of humanized anti-PVRIG/TIGIT bispecific antibodies to human and cynomolgus monkey TIGIT and blocking of binding of human TIGIT to ligand were detected, where PVRIG protein was replaced with TIGIT and PVRL2 was replaced with PVR.

[8] = biological target: cynomolgus monkey TIGIT recombinant protein (cynomolgus monkey, UniProt A0A7N9I9V4 89-209); assay: ELISA, coated antigen
Experimental: as §1, §4

T7 sequence (A0A7N9I9V4 entry or part of it): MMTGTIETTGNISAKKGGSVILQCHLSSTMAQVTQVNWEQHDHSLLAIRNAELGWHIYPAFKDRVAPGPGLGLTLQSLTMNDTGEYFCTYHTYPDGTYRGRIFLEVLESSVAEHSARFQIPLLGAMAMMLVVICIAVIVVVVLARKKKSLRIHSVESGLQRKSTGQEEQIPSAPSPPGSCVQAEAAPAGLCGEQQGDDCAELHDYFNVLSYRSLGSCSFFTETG
cynomolgus monkey TIGIT recombinant protein, sequence (A0A7N9I9V4 entry or part of it): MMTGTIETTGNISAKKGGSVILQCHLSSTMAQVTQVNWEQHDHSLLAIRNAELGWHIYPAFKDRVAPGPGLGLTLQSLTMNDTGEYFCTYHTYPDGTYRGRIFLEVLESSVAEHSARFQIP

EC50 [1]: 9.44 nM
EC50 [2]: 0.679 nM
IC50 [3]: 0.598 nM
EC50 [4]: 0.043 nM
EC50 [5]: 11.5 nM
Kd [6]: 0.125 nM
koff [6]: 0.000757 s⁻¹
kon [6]: 6.06e+06 M⁻¹ s⁻¹
EC50 [7]: 0.012 nM
EC50 [8]: 0.119 nM
B1: humanized anti-PVRIG/TIGIT bispecific antibody 1708-151H7 (bispecific antibody, human IgG4 S228P, kappa)
heavy: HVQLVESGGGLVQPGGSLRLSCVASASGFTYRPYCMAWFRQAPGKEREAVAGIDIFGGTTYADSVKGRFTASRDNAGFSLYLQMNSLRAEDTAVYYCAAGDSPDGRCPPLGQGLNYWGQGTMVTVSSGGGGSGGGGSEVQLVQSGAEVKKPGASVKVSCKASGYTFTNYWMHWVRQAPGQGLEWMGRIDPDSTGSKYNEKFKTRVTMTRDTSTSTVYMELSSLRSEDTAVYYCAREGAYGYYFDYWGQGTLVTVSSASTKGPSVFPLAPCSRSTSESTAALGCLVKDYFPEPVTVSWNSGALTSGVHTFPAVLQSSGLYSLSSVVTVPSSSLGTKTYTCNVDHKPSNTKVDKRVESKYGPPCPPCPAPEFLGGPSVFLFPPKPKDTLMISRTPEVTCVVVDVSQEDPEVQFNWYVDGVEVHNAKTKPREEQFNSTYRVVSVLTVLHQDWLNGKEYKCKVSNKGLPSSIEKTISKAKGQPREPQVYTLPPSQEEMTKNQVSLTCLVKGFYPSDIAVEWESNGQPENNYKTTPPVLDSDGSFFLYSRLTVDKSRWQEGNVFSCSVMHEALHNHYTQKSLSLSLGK
light: DIQMTQSPSSLSASVGDRVTITCRASENIYSYLAWYQQKPGKSPKLLIYNARTLAEGVPSRFSGSGSGTDFTLTISSLQPEDFATYYCQYHSGSPLPFGGGTKVEIKRTVAAPSVFIFPPSDEQLKSGTASVVCLLNNFYPREAKVQWKVDNALQSGNSQESVTEQDSKDSTYSLSSTLTLSKADYEKHKVYACEVTHQGLSSPVTKSFNRGEC
